Assay results published in patent US20220204580A1 (AstraZeneca / MedImmune, published 2022).
One block for each binder: values may come before it. Numbered stars: 1 amine (or outer) side, 2 acyl side, 3 side chain; on linkers, the order of the positions; unused ones are H or OH. Bridge positions count the residues as written; N and C are the ends. Side chains are listed from the residue outwards. Ends that are not written are not given here. * marks the point of attachment. C20 diacid = O=C(O)CCCCCCCCCCCCCCCCCCC(=O)*; γGlu = O=C(O)[C@H](CCC(=O)[*:2])N[*:1]; AEEA = NCCOCCOCC(=O)O

Key:
Experiment in all cases: cell-based or functional assay
[1] = target: T1, rat calcitonin receptor (rat, UniProt P32214 25-516)
T1 sequence (looked up): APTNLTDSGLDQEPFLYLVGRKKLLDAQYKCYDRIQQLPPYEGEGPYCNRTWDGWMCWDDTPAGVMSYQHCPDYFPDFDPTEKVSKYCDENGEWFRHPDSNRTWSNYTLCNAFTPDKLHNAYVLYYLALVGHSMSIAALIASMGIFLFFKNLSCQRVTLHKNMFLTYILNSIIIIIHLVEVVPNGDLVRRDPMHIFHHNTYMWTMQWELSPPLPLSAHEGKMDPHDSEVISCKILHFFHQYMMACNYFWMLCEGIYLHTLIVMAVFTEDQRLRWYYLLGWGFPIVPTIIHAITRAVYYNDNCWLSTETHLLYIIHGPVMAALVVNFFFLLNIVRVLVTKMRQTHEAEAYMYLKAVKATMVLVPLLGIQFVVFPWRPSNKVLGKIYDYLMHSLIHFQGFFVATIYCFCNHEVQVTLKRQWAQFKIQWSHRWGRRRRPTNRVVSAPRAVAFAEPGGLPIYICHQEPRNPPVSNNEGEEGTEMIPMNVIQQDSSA

[2] = target: T2, rat amylin receptor (calcitonin receptor co-expressed with receptor activity modifying protein, RAMP3) (rat, UniProt P32214 25-516; Q9JJ73 23-147)
T2 sequence (looked up) 1: T1 sequence (looked up)
T2 sequence (looked up) 2: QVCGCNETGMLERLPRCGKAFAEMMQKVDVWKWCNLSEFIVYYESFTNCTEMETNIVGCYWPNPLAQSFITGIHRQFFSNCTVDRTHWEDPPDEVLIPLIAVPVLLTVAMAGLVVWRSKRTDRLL

[3] = target: T3, human calcitonin receptor (human, UniProt P30988 25-474)
T3 sequence (looked up): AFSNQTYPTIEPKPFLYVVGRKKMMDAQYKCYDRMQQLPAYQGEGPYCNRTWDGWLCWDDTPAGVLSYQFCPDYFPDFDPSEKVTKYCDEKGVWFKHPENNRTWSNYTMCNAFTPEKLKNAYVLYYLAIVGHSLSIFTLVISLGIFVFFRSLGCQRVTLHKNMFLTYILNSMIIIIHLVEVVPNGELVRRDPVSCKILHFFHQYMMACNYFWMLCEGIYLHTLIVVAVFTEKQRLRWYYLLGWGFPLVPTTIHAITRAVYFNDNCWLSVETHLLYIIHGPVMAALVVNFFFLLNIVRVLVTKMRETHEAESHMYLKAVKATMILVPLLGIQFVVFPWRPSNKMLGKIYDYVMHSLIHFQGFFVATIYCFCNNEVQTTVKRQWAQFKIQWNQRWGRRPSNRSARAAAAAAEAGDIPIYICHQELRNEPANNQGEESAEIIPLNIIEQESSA

[4] = target: T4, human amylin receptor (calcitonin receptor co-expressed with receptor activity modifying protein, RAMP3) (human, UniProt P30988 25-474; O60896 24-148)
T4 sequence (looked up) 1: T3 sequence (looked up)
T4 sequence (looked up) 2: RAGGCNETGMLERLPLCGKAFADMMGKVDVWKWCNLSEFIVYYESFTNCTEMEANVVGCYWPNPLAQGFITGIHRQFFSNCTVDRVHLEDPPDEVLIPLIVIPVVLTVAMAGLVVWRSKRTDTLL

EC50 (cAMP production) [1]: 4.87 nM
EC50 (cAMP production) [2]: 0.0122 nM
EC50 (cAMP production) [3]: 15.8 nM
EC50 (cAMP production) [4]: 1.32 nM
Ratio (EC50 hCTR / EC50 hAMYR3) [4]: 12
B1: Peptide 114 (SEQ ID NO: 114) (peptide)
peptide: K([γGlu-γGlu-C20 diacid])CNTATCATQRLANFLVHSSNNFGPILPPTNVGSRTY-NH2
modifications: disulfide 2-7; N-terminus assumed
SMILES: CC[C@H](C)[C@H](NC(=O)[C@@H]1CCCN1C(=O)CNC(=O)[C@H](Cc1ccccc1)NC(=O)[C@H](CC(N)=O)NC(=O)[C@H](CC(N)=O)NC(=O)[C@H](CO)NC(=O)[C@H](CO)NC(=O)[C@H](Cc1c[nH]cn1)NC(=O)[C@@H](NC(=O)[C@H](CC(C)C)NC(=O)[C@H](Cc1ccccc1)NC(=O)[C@H](CC(N)=O)NC(=O)[C@H](C)NC(=O)[C@H](CC(C)C)NC(=O)[C@H](CCCNC(=N)N)NC(=O)[C@H](CCC(N)=O)NC(=O)[C@@H](NC(=O)[C@H](C)NC(=O)[C@@H]1CSSC[C@H](NC(=O)[C@@H](N)CCCCNC(=O)CC[C@H](NC(=O)CC[C@H](NC(=O)CCCCCCCCCCCCCCCCCCC(=O)O)C(=O)O)C(=O)O)C(=O)N[C@@H](CC(N)=O)C(=O)N[C@@H]([C@@H](C)O)C(=O)N[C@@H](C)C(=O)N[C@@H]([C@@H](C)O)C(=O)N1)[C@@H](C)O)C(C)C)C(=O)N[C@@H](CC(C)C)C(=O)N1CCC[C@H]1C(=O)N1CCC[C@H]1C(=O)N[C@H](C(=O)N[C@@H](CC(N)=O)C(=O)N[C@H](C(=O)NCC(=O)N[C@@H](CO)C(=O)N[C@@H](CCCNC(=N)N)C(=O)N[C@H](C(=O)N[C@@H](Cc1ccc(O)cc1)C(N)=O)[C@@H](C)O)C(C)C)[C@@H](C)O

EC50 (cAMP production) [1]: 22.6 nM
EC50 (cAMP production) [2]: 0.0226 nM
EC50 (cAMP production) [3]: 7.65 nM
EC50 (cAMP production) [4]: 0.703 nM
Ratio (EC50 hCTR / EC50 hAMYR3) [4]: 11
B2: Peptide 115 (SEQ ID NO: 115) (peptide)
peptide: K([γGlu-γGlu-C20 diacid])CNTATCATQRLANFLVHSSPNFPAILSPTNVGSNTY-NH2
modifications: disulfide 2-7; N-terminus assumed
SMILES: CC[C@H](C)[C@H](NC(=O)[C@H](C)NC(=O)[C@@H]1CCCN1C(=O)[C@H](Cc1ccccc1)NC(=O)[C@H](CC(N)=O)NC(=O)[C@@H]1CCCN1C(=O)[C@H](CO)NC(=O)[C@H](CO)NC(=O)[C@H](Cc1c[nH]cn1)NC(=O)[C@@H](NC(=O)[C@H](CC(C)C)NC(=O)[C@H](Cc1ccccc1)NC(=O)[C@H](CC(N)=O)NC(=O)[C@H](C)NC(=O)[C@H](CC(C)C)NC(=O)[C@H](CCCNC(=N)N)NC(=O)[C@H](CCC(N)=O)NC(=O)[C@@H](NC(=O)[C@H](C)NC(=O)[C@@H]1CSSC[C@H](NC(=O)[C@@H](N)CCCCNC(=O)CC[C@H](NC(=O)CC[C@H](NC(=O)CCCCCCCCCCCCCCCCCCC(=O)O)C(=O)O)C(=O)O)C(=O)N[C@@H](CC(N)=O)C(=O)N[C@@H]([C@@H](C)O)C(=O)N[C@@H](C)C(=O)N[C@@H]([C@@H](C)O)C(=O)N1)[C@@H](C)O)C(C)C)C(=O)N[C@@H](CC(C)C)C(=O)N[C@@H](CO)C(=O)N1CCC[C@H]1C(=O)N[C@H](C(=O)N[C@@H](CC(N)=O)C(=O)N[C@H](C(=O)NCC(=O)N[C@@H](CO)C(=O)N[C@@H](CC(N)=O)C(=O)N[C@H](C(=O)N[C@@H](Cc1ccc(O)cc1)C(N)=O)[C@@H](C)O)C(C)C)[C@@H](C)O

EC50 (cAMP production) [1]: 10.4 nM
EC50 (cAMP production) [2]: 0.0326 nM
EC50 (cAMP production) [3]: 18.5 nM
EC50 (cAMP production) [4]: 1.17 nM
Ratio (EC50 hCTR / EC50 hAMYR3) [4]: 16
Binder: {C20 diacid-γGlu-AEEA-AEEA}-KCNTATCATQRLANFLVHSSNNFGPILPPTNVGSNTY-NH2 (disulfide 2-7) [Peptide 113 (SEQ ID NO: 113)]
